Data from patent publication US7951549B2, “Methods for the identification of agents that inhibit mesenchymal-like tumor cells or their formation” (OSI Pharmaceuticals, Inc., priority 2008, dated 2011).

Key:
[1] = test system: H358 cells; test: Induction of EMT in H358 cells by growth factors and cytokines (immunoblot of EMT biomarkers); type: cell-based, human; details: seven day treatment of H358
Procedure: The human line H358 was cultured in the appropriate ATCC recommended supplemented media. Growth factor and cytokine induced EMT was monitored over a 7-14 day period. […]
Cell lines were treated as indicated in the text and figure legends. […] Protein concentration was determined by micro-BCA assay (Pierce, #23227). […]

[2] = test system: H358 cells; test: Immunofluorescence and confocal imaging of E-cadherin and vimentin in ligand-treated H358 cells; type: cell-based, human; details: cells treated for 7 days
Procedure: Cells were plated on coverslips on experimental day 0, stimulated with ligand on day 1 and refreshed with medium and ligand on day 3-4. On day 7, cells were fixed at room temperature for 10 minutes in 4% paraformaldehyde (EMS #15701)/PBS (Gibco #14190). Cells were blocked in 3% BSA/PBS and incubated with primary antibody (E-cadherin, Santa Cruz #sc21791 and Vimentin, Chemicon #AB5733) diluted in blocking buffer for two hours at room temperature. Cells were washed and incubated in secondary antibody (Invitrogen #A11029 and Chemicon #AP194R) followed by nuclear counterstain TO-PRO3 (Invitrogen #T3605). Coverslips were mounted on slides with Pro-Long Gold anti-fade reagent (Invitrogen P36934). Images were captured on a Leica DMRXE microcope with SP2 scanner using Leica Confocal Software.

B1: OSM: oncostatin M (R&D Systems #295-OM) (protein, UniProt P13725 26-221, looked up)
Oncostatin-M: AAIGSCSKEYRVLLGQLQKQTDLMQDTSRLLDPYIRIQGLDVPKLREHCRERPGAFPSEETLRGLGRRGFLQTLNATLGCVLHRLADLEQRLPKAQDLERSGLNIEDLEKLQMARPNILGLRNNIYCMAQLLDNSDTAEPTKAGRGASQPPTPTPASDAFQRKLEGCRFLHGYHRFMHSVGRVFSKWGESPNRSRR
- E-cadherin repression or vimentin induction as single agents [1]: neither HGF or OSM as single agents produced significant
- extent of EMT at the single cell level (E-cadherin and vimentin expression and localization) [2]: partial EMT
